Here are results for 2 molecules from publication PMC10689493 (Nature Communications, 2023).

The target in this experiment is T1, biotinylated SARS-CoV-2 Spike protein (WA-2, 2 P) (SARS-CoV-2 WA-2 (entry: reference …, UniProt P0DTC2, stabilised, biotinylated)).
T1 construct: source: bought: R&D systems
The experiment can be described thus: SPR. To be noted: both partners purified.

B1: S2P6 FAB fragment (Fab, V domains shown)
VH: EVQLVQSGAEVKKPGASVKVSCKASGYTFTSQYMHWVRQAPGQGLEWIGIINPSGVHTSYAQKFQGRVTLTRDTSTSTLYMELSSLRSEDTAVYYCARGSPKGAFDYWGQGTLVTVSS
VL: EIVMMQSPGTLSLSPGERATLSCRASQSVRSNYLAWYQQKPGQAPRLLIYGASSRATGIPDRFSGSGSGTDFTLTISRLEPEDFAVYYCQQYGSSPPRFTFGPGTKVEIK
The term Kd denotes the free concentration of one partner at which half of the binding sites on the other are occupied at equilibrium, for simple one-to-one binding. As for B1, binding was put at a Kd of 0.4 nM.

B2: DH1057.1 FAB fragment (Fab, V domains shown)
VH: EVQLVESGTEVKKPGASVKVSCKTSGYIFTNYYIHWVRQAPGQGLEWMGIFNPNGGGTSYAQKFQGRITLTGNTSANTGYMVLRSLTSEDTAVYYCARDPRTSGDNDGFDMWGQGTKVTVSS
VL: VLTQSPATLSLSPGERATLSCRASQSLSSYNYLAWYQQKPGQAPRLLIYAASKRATGIPARFSGSGSGTDFTLTISSLEPEDFAVYFCQQRSNRPPAWTFGQGTKVEIK
With B2, binding was characterised by a dissociation constant (Kd) of 11.5 nM.
